To fix the notation:
B6: phosphorylated PASC-Kin (PASC-Kin-P) (domain or fragment, E. coli, UniProt P0AEC8 212-539, looked up)
chain: LEPYEISTLFEQRQAMLQSIKEGVVAVDDRGEVTLINDAAQELLNYRKSQDDEKLSTLSHSWSQVVDVSEVLRDGTPRRDEEITIKDRLLLINTVPVRSNGVIIGAISTFRDKTEVRKLMQRLDGLVNYADALRERSHEFMNKLHVILGLLHLKSYKQLEDYILKTANNYQEEIGSLLGKIKSPVIAGFLISKINRATDLGHTLILNSESQLPDSGSEDQVATLITTLGNLIENALEALGPEPGGEISVTLHYRHGWLHCEVNDDGPGIAPDKIDHIFDKGVSTKGSERGVGLALVKQQVENLGGSIAVESEPGIFTQFFVQIPWDGE
modifications: phosphorylated by autophosphorylation with ATP; phosphorylation site His349
notes: cytoplasmic part of E. coli DcuS, residues 212-539, autophosphorylated with ATP; source: E. coli BL21(DE3), purified (Ni-NTA agarose), then incubated with 1 mM ATP; not shown: His6, N-terminal, kept
B7: His6-PASc-Kin (DcuS [AS 212-539]) (domain or fragment, E. coli, UniProt P0AEC8 212-539, looked up)
chain: LEPYEISTLFEQRQAMLQSIKEGVVAVDDRGEVTLINDAAQELLNYRKSQDDEKLSTLSHSWSQVVDVSEVLRDGTPRRDEEITIKDRLLLINTVPVRSNGVIIGAISTFRDKTEVRKLMQRLDGLVNYADALRERSHEFMNKLHVILGLLHLKSYKQLEDYILKTANNYQEEIGSLLGKIKSPVIAGFLISKINRATDLGHTLILNSESQLPDSGSEDQVATLITTLGNLIENALEALGPEPGGEISVTLHYRHGWLHCEVNDDGPGIAPDKIDHIFDKGVSTKGSERGVGLALVKQQVENLGGSIAVESEPGIFTQFFVQIPWDGE
notes: cytoplasmic part of E. coli DcuS (Linker, PASC and kinase domains), residues 212-539; unphosphorylated; pET28a derivative; homodimer by SEC (Mr 84 kDa, monomer 40.4 kDa); also called His6-PASc-Kinase; 6His-PASc-Kinase; source: E. coli BL21(DE3), purified (Ni-NTA agarose); not shown: His6, N-terminal, kept

In one data set the target is T1, T25-DcuR(D56N) (E. coli, UniProt P0AD01 1-239, D56N).
T1 construct: E. coli DcuR, as pMW427 (T25-DcuR) with the phosphorylation site Asp56 changed to Asn; source: bacterial two-hybrid (BACTH) fusion in E. coli BTH101; not shown: T25 domain of Bordetella pertussis adenylate cyclase, N-terminal, kept
T1 sequence (looked up): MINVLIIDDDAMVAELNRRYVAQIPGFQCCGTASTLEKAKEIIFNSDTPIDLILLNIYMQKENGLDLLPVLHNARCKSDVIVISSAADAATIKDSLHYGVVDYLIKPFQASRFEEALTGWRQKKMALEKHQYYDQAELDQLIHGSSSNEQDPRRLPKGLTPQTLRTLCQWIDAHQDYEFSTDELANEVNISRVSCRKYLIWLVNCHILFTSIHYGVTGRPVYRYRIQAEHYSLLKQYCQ
The data set is described as follows: two-hybrid; bacterial two-hybrid BACTH in E. coli BTH101 (ΔcyaA); T25 N-terminally on DcuR, T18 C-terminally on DcuS or PASC-Kin; β-galactosidase activity in Miller units; wild-type pair also with fumarate. To be noted: partners not purified.

A further data set addresses T2, T25-DcuR (E. coli, UniProt P0AD01 1-239).
T2 construct: response regulator DcuR of E. coli (REC and HTH domains); also called DcuR-fusion; source: bacterial two-hybrid (BACTH) fusion in E. coli BTH101; not shown: T25 domain of Bordetella pertussis adenylate cyclase, N-terminal, kept
T2 sequence (looked up): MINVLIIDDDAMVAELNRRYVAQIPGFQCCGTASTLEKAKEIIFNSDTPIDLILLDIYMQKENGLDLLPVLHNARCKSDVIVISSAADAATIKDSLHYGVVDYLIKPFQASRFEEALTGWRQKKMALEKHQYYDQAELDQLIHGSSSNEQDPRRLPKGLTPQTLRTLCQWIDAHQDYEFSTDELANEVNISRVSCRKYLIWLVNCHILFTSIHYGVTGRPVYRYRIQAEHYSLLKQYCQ
Described as above. To be noted: partners not purified.

Data set [1] addresses B6. Nature of the data set: MST; eYFP-L-DcuR at 0.1 μM, His6-PASC-Kin titrated from 10^-1 to 2 x 10^4 nM; Tris/HCl pH 7.7, 10 mM MgCl2, 2 mM DTT; 25°C; Monolith NT.115; 1:1 binding model; Kd refers to monomer concentrations. The following applies: both partners purified.
In data set [2] the target is B7. The data set is described as above. The following applies: both partners purified.
The target of a further data set is T3, His6-DcuR (E. coli, UniProt P0AD01 1-239).
T3 construct: response regulator DcuR of E. coli; unphosphorylated; also called DcuR-6His; source: E. coli BL21(DE3), purified (Ni-NTA agarose)
T3 sequence (looked up): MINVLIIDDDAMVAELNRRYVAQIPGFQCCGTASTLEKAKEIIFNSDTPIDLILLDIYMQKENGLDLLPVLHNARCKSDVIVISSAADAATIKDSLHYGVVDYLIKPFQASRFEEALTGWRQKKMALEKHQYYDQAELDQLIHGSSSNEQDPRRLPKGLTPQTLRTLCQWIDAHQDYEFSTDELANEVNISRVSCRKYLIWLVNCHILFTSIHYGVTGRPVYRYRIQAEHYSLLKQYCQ
The data set is described as follows: SEC; mixtures of PASC-Kin and DcuR (phosphate-free or phosphorylated), molar ratios 1:1.44, 1:2, 1:1.4 with PASC-Kin at 40.4 μM (also 1:0.2, 1:5, 1:10 for PASC-Kin-P and DcuR); HiLoad 16/600 Sephadex 200; peak fractions analysed by SDS-PAGE and quantified with ImageJ. To be noted: both partners purified. (In general: In gel filtration, larger molecules generally elute earlier.)

Data set [3] concerns the molecule itself. Described as above.
Data set [4] concerns the molecule itself. The data set is described as follows: SEC; each protein alone on HiLoad 16/600 Sephadex 200; His6-PASc-Kinase 45 μM, DcuR 55 μM; 50 mM Tris-HCl, 1 mM DTT, 50 mM KCl, 5 mM MgCl2, pH 7.7, 25°C; Mr by calibration with protein standards.

B1: DcuS-T18 (natural protein, E. coli, UniProt P0AEC8 1-543, looked up)
chain: MRHSLPYRMLRKRPMKLSTTVILMVSAVLFSVLLVVHLIYFSQISDMTRDGLANKALAVARTLADSPEIRQGLQKKPQESGIQAIAEAVRKRNDLLFIVVTDMQSLRYSHPEAQRIGQPFKGDDILKALNGEENVAINRGFLAQALRVFTPIYDENHKQIGVVAIGLELSRVTQQINDSRWSIIWSVLFGMLVGLIGTCILVKVLKKILFGLEPYEISTLFEQRQAMLQSIKEGVVAVDDRGEVTLINDAAQELLNYRKSQDDEKLSTLSHSWSQVVDVSEVLRDGTPRRDEEITIKDRLLLINTVPVRSNGVIIGAISTFRDKTEVRKLMQRLDGLVNYADALRERSHEFMNKLHVILGLLHLKSYKQLEDYILKTANNYQEEIGSLLGKIKSPVIAGFLISKINRATDLGHTLILNSESQLPDSGSEDQVATLITTLGNLIENALEALGPEPGGEISVTLHYRHGWLHCEVNDDGPGIAPDKIDHIFDKGVSTKGSERGVGLALVKQQVENLGGSIAVESEPGIFTQFFVQIPWDGERSNR
notes: membrane-integral C4-dicarboxylate sensor kinase DcuS of E. coli, full length; also called full-length DcuS; DcuS-fusion; source: bacterial two-hybrid (BACTH) fusion in E. coli BTH101; not shown: T18 domain of Bordetella pertussis adenylate cyclase, C-terminal, kept
For B1, in the data set with T25-DcuR(D56N), the “% of wild-type BACTH activity” value is 94%.

B2: DcuS(H349A)-T18 (natural protein, E. coli, UniProt P0AEC8 1-543, looked up)
chain: MRHSLPYRMLRKRPMKLSTTVILMVSAVLFSVLLVVHLIYFSQISDMTRDGLANKALAVARTLADSPEIRQGLQKKPQESGIQAIAEAVRKRNDLLFIVVTDMQSLRYSHPEAQRIGQPFKGDDILKALNGEENVAINRGFLAQALRVFTPIYDENHKQIGVVAIGLELSRVTQQINDSRWSIIWSVLFGMLVGLIGTCILVKVLKKILFGLEPYEISTLFEQRQAMLQSIKEGVVAVDDRGEVTLINDAAQELLNYRKSQDDEKLSTLSHSWSQVVDVSEVLRDGTPRRDEEITIKDRLLLINTVPVRSNGVIIGAISTFRDKTEVRKLMQRLDGLVNYADALRERSAEFMNKLHVILGLLHLKSYKQLEDYILKTANNYQEEIGSLLGKIKSPVIAGFLISKINRATDLGHTLILNSESQLPDSGSEDQVATLITTLGNLIENALEALGPEPGGEISVTLHYRHGWLHCEVNDDGPGIAPDKIDHIFDKGVSTKGSERGVGLALVKQQVENLGGSIAVESEPGIFTQFFVQIPWDGERSNR
notes: E. coli DcuS, as pMW428 (full-length DcuS-T18) with the phosphorylation site His349 changed to Ala; source: bacterial two-hybrid (BACTH) fusion in E. coli BTH101; not shown: T18 domain of Bordetella pertussis adenylate cyclase, C-terminal, kept
With B2, the “% of wild-type BACTH activity” value with T25-DcuR was 94%.

B3: PASC-Kin(H349A)-T18 (domain or fragment, E. coli, UniProt P0AEC8 211-539, looked up)
chain: GLEPYEISTLFEQRQAMLQSIKEGVVAVDDRGEVTLINDAAQELLNYRKSQDDEKLSTLSHSWSQVVDVSEVLRDGTPRRDEEITIKDRLLLINTVPVRSNGVIIGAISTFRDKTEVRKLMQRLDGLVNYADALRERSAEFMNKLHVILGLLHLKSYKQLEDYILKTANNYQEEIGSLLGKIKSPVIAGFLISKINRATDLGHTLILNSESQLPDSGSEDQVATLITTLGNLIENALEALGPEPGGEISVTLHYRHGWLHCEVNDDGPGIAPDKIDHIFDKGVSTKGSERGVGLALVKQQVENLGGSIAVESEPGIFTQFFVQIPWDGE
notes: cytoplasmic part of E. coli DcuS, as pMW1076 [DcuS(211-539)] with H349A; source: bacterial two-hybrid (BACTH) fusion in E. coli BTH101; not shown: T18 domain of Bordetella pertussis adenylate cyclase, C-terminal, kept
Regarding B3, the “% of wild-type BACTH activity” value in the data set with T25-DcuR was determined as 108%.

B4: eYFP-L-DcuR (natural protein, E. coli, UniProt P0AD01 1-239, looked up)
chain: MINVLIIDDDAMVAELNRRYVAQIPGFQCCGTASTLEKAKEIIFNSDTPIDLILLDIYMQKENGLDLLPVLHNARCKSDVIVISSAADAATIKDSLHYGVVDYLIKPFQASRFEEALTGWRQKKMALEKHQYYDQAELDQLIHGSSSNEQDPRRLPKGLTPQTLRTLCQWIDAHQDYEFSTDELANEVNISRVSCRKYLIWLVNCHILFTSIHYGVTGRPVYRYRIQAEHYSLLKQYCQ
notes: response regulator DcuR of E. coli, joined genetically to eYFP by a short linker; unphosphorylated; The His6 tag is printed at the N-terminus and at the C-terminus in the same paragraph; also called eYfp-Linker-DcuR; His6-eYfp-Linker-DcuR; source: E. coli BL21(DE3), purified (Ni-NTA agarose)
By Kd is commonly meant a measure of binding affinity in units of concentration. Take B4: the results for the Kd in data set [1] and in data set [2] were 22 nM and 1380 nM, respectively.

B5: eYFP-L-DcuR-P (natural protein, E. coli, UniProt P0AD01 1-239, looked up)
chain: MINVLIIDDDAMVAELNRRYVAQIPGFQCCGTASTLEKAKEIIFNSDTPIDLILLDIYMQKENGLDLLPVLHNARCKSDVIVISSAADAATIKDSLHYGVVDYLIKPFQASRFEEALTGWRQKKMALEKHQYYDQAELDQLIHGSSSNEQDPRRLPKGLTPQTLRTLCQWIDAHQDYEFSTDELANEVNISRVSCRKYLIWLVNCHILFTSIHYGVTGRPVYRYRIQAEHYSLLKQYCQ
modifications: phosphorylated with carbamoyl phosphate; phosphorylation site Asp56 of DcuR
notes: response regulator DcuR of E. coli, joined genetically to eYFP by a short linker, phosphorylated with carbamoyl phosphate; also called eYFP-DcuR~P; source: E. coli BL21(DE3), purified (Ni-NTA agarose), then incubated with 50 mM carbamoyl phosphate
The molecule B5 yielded a Kd in data set [2] of 28 nM.

What is called stoichiometry N is the number of molecules, sites or subunits per partner or assembly. As to B6, in the data set with His6-DcuR, the “stoichiometry N” value was determined as 0.86 mol DcuR/mol PASC-Kin. Besides, the binding result in data set [3] is on record as “binds”. With B7, the “stoichiometry N” value in data set [4] is 2.

For the origin of these results see publication PMC9429925, “Tight Complex Formation of the Fumarate Sensing DcuS-DcuR Two-Component System at the Membrane and Target Promoter Search by Free DcuR Diffusion” (mSphere, 2022).
